In this assay the target is Globin E1 of the South American lungfish Lepidosiren paradoxa, recombinant (Lepidosiren paradoxa).

For “Globin E1 of the South American lungfish Lepidosiren paradoxa, recombinant (natural protein)”, the cooperativity (n) of the O2 equilibrium curve, pH 7.2, 20 °C is 1.19.
